T1: human CC chemokine receptor 4 (CCR4) (human, UniProt P51679 1-360)
T1 sequence (looked up): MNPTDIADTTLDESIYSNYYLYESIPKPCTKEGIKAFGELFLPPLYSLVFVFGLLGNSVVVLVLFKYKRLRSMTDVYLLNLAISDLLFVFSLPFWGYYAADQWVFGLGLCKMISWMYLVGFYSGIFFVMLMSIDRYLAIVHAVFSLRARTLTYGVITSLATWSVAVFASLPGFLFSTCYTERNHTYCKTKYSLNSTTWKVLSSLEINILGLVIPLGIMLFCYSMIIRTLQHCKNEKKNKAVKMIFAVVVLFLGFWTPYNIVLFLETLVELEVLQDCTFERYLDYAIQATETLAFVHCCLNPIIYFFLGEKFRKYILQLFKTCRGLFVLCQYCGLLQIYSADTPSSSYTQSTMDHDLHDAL

T2: monkey (Macaca mulatta) CCR4 (monkey (Macaca mulatta), UniProt F7GUA3 1-360)
T2 construct: also called monkey CCR4
T2 sequence: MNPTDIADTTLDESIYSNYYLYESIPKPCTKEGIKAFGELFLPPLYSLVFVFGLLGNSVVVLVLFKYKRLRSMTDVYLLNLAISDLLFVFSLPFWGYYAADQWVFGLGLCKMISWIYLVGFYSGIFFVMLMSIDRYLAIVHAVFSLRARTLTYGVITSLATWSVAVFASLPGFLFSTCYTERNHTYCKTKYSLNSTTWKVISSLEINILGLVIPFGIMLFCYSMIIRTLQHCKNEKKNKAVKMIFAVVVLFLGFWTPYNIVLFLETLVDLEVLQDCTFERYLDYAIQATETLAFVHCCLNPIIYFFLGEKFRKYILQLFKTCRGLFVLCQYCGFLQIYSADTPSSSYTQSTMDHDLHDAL

T3: mouse CCR4 (mouse, UniProt P51680 1-360)
T3 construct: whole, on cells; also called murine CCR4
T3 sequence (looked up): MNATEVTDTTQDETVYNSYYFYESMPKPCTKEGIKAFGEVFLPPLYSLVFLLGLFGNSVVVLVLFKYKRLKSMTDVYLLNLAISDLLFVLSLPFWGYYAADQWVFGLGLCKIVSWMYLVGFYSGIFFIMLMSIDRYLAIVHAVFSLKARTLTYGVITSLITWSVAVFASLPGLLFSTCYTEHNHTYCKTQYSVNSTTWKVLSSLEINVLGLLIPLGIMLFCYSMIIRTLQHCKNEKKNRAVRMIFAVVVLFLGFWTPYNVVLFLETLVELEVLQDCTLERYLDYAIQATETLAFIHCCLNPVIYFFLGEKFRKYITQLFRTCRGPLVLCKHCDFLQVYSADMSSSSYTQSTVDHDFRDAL

B1: 603 scFv (scFv, not shown: small tags and cut ends)
scFv: QVQLVQSGAEVKKPGSSVKVSCKASGGTFSSYAMSWVRQAPGQGLEWMGGIIPIFGTVNYAQKFQGRVTMTRDTSTSTVYMELSSLRSDDTAVYYCARRRGAKFDYWGQGTLVTVSSKLSGSASAPKLEEGEFSEARVSYVLTQPPSASGTPGQSVTISCSGSTSNIGSHYVVWYQQLPGTAPRLLIYRNHQRPSGVPDRLSGSKSGTSASLAIGGLRSEDEADYYCAVWDDTLSGWVFGGGTKLTVL
notes: Expressed in TG1 bacteria; also called scFv 603; antibody 603 (single chain form)
B2: IgG form of antibody 306 (defucosylated IgG1) (antibody, V domains shown)
VH: QVQLVQSGAEVKKPGSSVKVSCKASGGTFSSYAMSWVRQAPGQGLEWMGGIIPIFGTVNYAQKFQGRVTMTRDTSTSTVYMELSSLRPDDTAVYYCARRGGSYFDYWGQGTLVTVSS
VL: SYVLTQPPSASGTPGQSVTISCSGSTSNIGSHYVSWYQQLPGTAPRLLIYRNHQRPSGVPDRLSGSKSGTSASLAISGLRSEDEADYYCAVWDAKYRGWVFGGGTKLTVLG
notes: Human IgG1, lambda light chain; produced in presence of Kifunensine (defucosylated); Biotinylated via cysteines for the human serum experiment
B3: IgG form of antibody 406 (defucosylated IgG1) (antibody, V domains shown)
VH: QVQLVQSGAEVKKPGSSVKVSCKASEGTFSSYAMSWVRQAPGQGLEWMGGIIPIFGTVNYAQKFQGRVTMTRDTSTSTVYMELSSLRSDDTAVYYCARRGGSYFDYWGQGTLVTVSS
VL: SYVLTQPPSASGTPGQSVTISCSGSTSNIGSHYVSWYQQLPGTAPRLLIYRNHQRPSGVPDRLSGSKSGTSASLAISGLRSEDEADYYCAVWDAKYRGWVFGGGTKLTVLG
notes: as for B2
B4: IgG form of antibody 503 (defucosylated IgG1) (antibody, V domains shown)
VH: QVQLVQSGAEVKKPGSSVKVSCKASEGTFSSYAMSWVRQAPGQGLEWMGGIIPIFGTVNYAQKFQGRVTMTRDTSTSTVYMELSSLRSDDTAVYYCARRRGAKFDYWGQGTLVTVSS
VL: SYVLTQPPSASGTPGQSVTISCSGSTSNIGSHYVVWYQQLPGTAPRLLIYRNHQRPSGVPDRLSGSKSGTSASLAIGGLRSEDEADYYCAVWDDTLSGWVFGGGTKLTVLG
notes: as for B2

Key:
[1] = target: T1, human CC chemokine receptor 4 (CCR4); assay: cell-based or functional assay
[2] = target: T1, human CC chemokine receptor 4 (CCR4); assay: flow cytometry on DT40 cells expressing human CCR4; scFv cross-linked with mouse anti-Myc antibody, detected with RPE anti-mouse IgG; MFI (PE-signal)
Procedure: For the flow cytometry experiments, the cells were harvested from the culture flasks, washed 2 times with PBS, re-suspended in PBS with 0.2% BSA and 0.09% NaN3 and finally aliquoted 1×10^5 cells per well into V-shaped 96-well plates (Greiner Bio-One, Frickenhausen, Germany). Cells were centrifuged at 400×g for 5 min and then incubated at 4° C. for 60 min with different scFv dilutions.
All scFv preparations were pre-incubated with a mouse anti-myc-antibody (9E10.2, Diatec, Oslo, Norway) to cross-link scFvs prior adding to the cells and diluted 3-fold, starting at a concentration of 10 μg/ml.
After washing with PBS with 0.2% BSA and 0.09% NaN3, the cells were stained with 1 μg/ml of RPE-conjugated goat anti-mouse IgG (AbD Serotec, Duesseldorf, Germany) for 30 minutes at 4° C. The stained cells were washed, re-suspended in 200 μl PBS with 0.2% BSA and 0.09% NaN3 and transferred to a U-shaped 96-well plate (Corning, Schiphol-Rijk, The Netherlands) for acquisition on EasyCyte flow cytometer (Guava Technologies, Hayward, Calif., USA).

[3] = target: T1, human CC chemokine receptor 4 (CCR4); assay: flow cytometry competition; IgG titrated from 2.5 ug/ml against fixed biotinylated TARC; competitor biotinylated TARC
[4] = target: T1, human CC chemokine receptor 4 (CCR4); assay: cell-based or functional assay; remark: listed apart in the source
[5] = target: T2, monkey (Macaca mulatta) CCR4; assay: flow cytometry on transiently transfected HEK-293T/17 cells, IgG 1 ug/ml (data not shown)
Procedure: (§1) For transient transfection, Hek293T/17 cells were seeded as 2×10^6 cells in a T75 (NUNC) flask. 48 h after seeding, the cells were transfected with Fugene (ROCHE). 40 μl Fugene and 16 μg DNA are used per T75. The cells were used for assays 48 h after transfection.
(§2) Non-transfected (CCR4 negative) cells served as a negative control. The cells were cultivated further for 48 hours under regular conditions and harvested form flasks as described above. One times 10^5 cells per well were aliquoted into V-shaped 96-well plates (Greiner Bio-One, Frikenhausen, Germany). […] The samples were then washed twice by centrifugation and re-suspension in 150 μl FACS buffer. […] The samples were washed twice as described above and re-suspended in 250 μl FACS buffer followed by transfer into a U-shaped 96-well plate (Corning, Schiphol-Rijk, Netherlands) for flow cytometry on FACSCantoII (BD Biosciences, San Jose, Calif.).

[6] = target: T1, human CC chemokine receptor 4 (CCR4); assay: flow cytometry competition; IgG titrated from 5 ug/ml against fixed Alexa647 MDC-SNAP (50 nM); competitor MDC-SNAP
[7] = target: T1, human CC chemokine receptor 4 (CCR4); assay: flow cytometry on CCRF-CEM cells; defucosylated IgG1, detected with RPE anti-human IgG; Median-PE [panel CCRF-CEM]
Procedure: (§3) All cells were re-suspended in PBS with 0.2% BSA and 0.09% NaN3 and finally aliquoted 1×10^5 cells per well into V-shaped 96-well plates (Greiner Bio-One, Frickenhausen, Germany). Cells were centrifuged at 400×g for 5 min and then incubated at 4° C. for 60 min with different IgG dilutions. For binding in presence of human serum, CCRF-CEM cells were incubated with different IgG-solutions at either 10% or 50% of human serum (Sigma Aldrich, St Louis, Mo., USA) at 37° C. for 60 min.

mouse CCR4 = target: T3, mouse CCR4; assay: flow cytometry on transiently transfected HEK-293T/17 cells, IgG 1 ug/ml
Procedure: as §1, §2

[8] = target: T1, human CC chemokine receptor 4 (CCR4); assay: flow cytometry on Hut78 cells (CCR4-positive); defucosylated IgG1, detected with RPE anti-human IgG; Median-PE [panel Hut78]
Procedure: as §3

[9] = target: T1, human CC chemokine receptor 4 (CCR4); assay: cell-based or functional assay; remark: listed apart in the source
[10] = target: T1, human CC chemokine receptor 4 (CCR4); assay: cell-based or functional assay; remark: listed apart in the source
[11] = target: T1, human CC chemokine receptor 4 (CCR4); assay: cell-based or functional assay; remark: listed apart in the source

| Binder | IC50 of inhibition of TARC-mediated Ca-Flux in CCRF-CEM cells [1] [nM] | EC50 (read off the curve) [2] [µg/mL] | IC50 [3] [nM] | Inhibition of MDC (Ca-Flux), Blockage of signaling in % at 10 µg/ml IgG [4] [%] | Inhibition of TARC (Ca-Flux), IC50 [4] [nM] | binding result [5] | IC50 [6] [nM] | EC50 (read off the curve) [7] [nM] | binding result (mouse CCR4) | EC50 (read off the curve) [8] [nM] | Inhibition of CCL17/TARC-induced migration of CCRF-CEM cells, IC50 [9] [nM] | Inhibition of CCL22/MDC-induced migration, Blockage of migration in % (IgG 10 µg/ml) [9] [%] | ADCC on CCRF-CEM cells with human PBMCs, EC50 [10] [nM] | ADCC on CCRF-CEM cells, Max. Killing (%; nM IgG) [10] | ADCC on L-428 cells with human PBMCs, EC50 [10] [nM] | ADCC on L-428 cells, Max. Killing (%; nM IgG) [10] | IC50 of inhibition of CCL17/TARC-induced invasion of 786-O cells, CCL17/TARC 25 nM [11] [µg/mL] | IC50 of inhibition of CCL17/TARC-induced invasion of 786-O cells, CCL17/TARC 125 nM [11] [µg/mL] |
| --- | --- | --- | --- | --- | --- | --- | --- | --- | --- | --- | --- | --- | --- | --- | --- | --- | --- | --- |
| B1 | 0.002 | ~0.3 | – | – | – | – | – | – | – | – | – | – | – | – | – | – | – | – |
| B2 | – | – | 0.51 | 74 | 0.039 | binds | 0.28 | ~0.06 | binds | ~0.06 | 0.158 | 50 | 0.114 | 118 % (at 1.4 nM IgG) | 0.708 | 88 % (at 7 nM IgG) | – | – |
| B3 | – | – | 0.94 | 74 | 0.028 | binds | 0.27 | ~0.2 | binds | ~0.08 | 0.178 | 49 | 0.0999 | 121 % (at 1.4 nM IgG) | 0.704 | 78 % (at 7 nM IgG) | – | – |
| B4 | – | – | 0.87 | 64 | 0.013 | binds | 0.11 | ~0.02 | binds | ~0.05 | 0.039 | 39 | 0.0053 | 108 % (at 1.4 nM IgG) | 0.233 | 93 % (at 7 nM IgG) | 0.12 | 1.33 |

From US20120164161A1 (AFFITECH RESEARCH, published 2012)
